This note sets out measurements from patent US20190282704A1.

In assay [1] the target is wildtype feline IL-31 (Feline_IL31_wildtype) (feline).
In assay [2] the target is canine IL-31 (Canine_IL31) (canine).
Assay [3] addresses wildtype feline IL-31 (Feline_IL31_wildtype) (feline). The assay is described as follows: SPR (Biacore), immobilised IL-31, 1:1 fit. For orientation: SPR reads the build-up and loss of mass on a sensor chip optically.
Assay [4] concerns the target canine IL-31 (Canine_IL31) (canine). Nature of the assay: SPR (Biacore), immobilised IL-31, 1:1 fit.
Assay [5] concerns the target wildtype feline IL-31 (Feline_IL31_wildtype) (feline). Nature of the assay: indirect ELISA, coated IL-31.
The target of assay [6] is feline IL-31 15H05 mutant (Feline_IL31_15H05 mutant) (feline). The assay is described as follows: indirect ELISA, coated IL-31. On the technique in general: ELISA stands for enzyme-linked immunosorbent assay.
Sequence of feline IL-31 15H05 mutant (Feline_IL31_15H05 mutant) (feline) (chain, as listed by the source mutant limits assumed, form in doubt): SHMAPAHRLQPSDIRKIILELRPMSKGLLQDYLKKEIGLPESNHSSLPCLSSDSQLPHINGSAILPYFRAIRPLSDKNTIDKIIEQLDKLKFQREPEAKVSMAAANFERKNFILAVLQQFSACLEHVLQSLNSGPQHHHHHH
In assay [7] the target is wildtype feline IL-31 (Feline_IL31_wildtype) (feline). The assay is described as follows: cell-based or functional assay.
Assay [8] deals with canine IL-31 (Canine_IL31) (canine). The assay is described as follows: cell-based or functional assay.

Sequence of canine IL-31 (Canine_IL31) (canine) (chain, as listed by the source limits assumed, form in doubt): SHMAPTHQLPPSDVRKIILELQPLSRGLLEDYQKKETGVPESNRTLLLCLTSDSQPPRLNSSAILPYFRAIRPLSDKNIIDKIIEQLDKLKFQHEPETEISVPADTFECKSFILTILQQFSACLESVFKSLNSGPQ
Sequence of wildtype feline IL-31 (Feline_IL31_wildtype) (feline) (chain, as listed by the source limits assumed, form in doubt): as the sequence (chain, as listed by the source mutant limits assumed, form in doubt) above, with A103P, A105D counted along it

B1: mouse anti IL-31 antibody 15H05 (antibody, V domains shown)
VH: QVQLQQSAAELARPGASVKMSCKTSGYTFTSYTIHWIKQRPGQGLEWIGNINPTSGYTENNQRFKDKTTLTVDRSSNTAYLQLHSLTSEDSAVYFCARWGFKYDGEWSFDVWGAGTTVTVSS
VL: DIQMNQSPSSLSASLGDTITVTCRASQGISIWLSWYQQKPGNIPKVLINKASNLHIGVPPRFSGSGSGTHFTLTITSLQPEDIATYYCLQSQTYPLTFGGGTKLEIN
Turning to B1, in assay [1], the IC50, inhibition of feline IL-31-induced STAT3 phosphorylation, canine DH82 cells is 2.7 µg/mL and the IC50, inhibition of feline IL-31-induced STAT3 phosphorylation, feline FCWF4 cells is 4.26 µg/mL. In assay [2], this molecule had an IC50, inhibition of canine IL-31-induced STAT3 phosphorylation, canine DH82 cells of 11.2 µg/mL and an IC50, inhibition of canine IL-31-induced STAT3 phosphorylation, feline FCWF4 cells of 25.7 µg/mL. In assay [3], the Kd – broadly, the concentration at which binding is half-saturated – amounted to 0.348 nM; the koff – broadly, a measure of how fast the partners let go of each other – was 1.69e-05 s⁻¹; the kon – broadly, the second-order rate constant of association – was found to be 48400 M⁻¹ s⁻¹. In assay [4], this molecule yielded a Kd of 0.00487 nM, a koff of 6.56e-07 s⁻¹ and a kon of 135000 M⁻¹ s⁻¹. In assay [5], this molecule returned a Binding (ELISA OD) of 1.94 OD. The molecule further registered a Binding (ELISA OD) in assay [6] of 0.05 OD.

B2: mouse: feline 15H05 chimera (antibody)
heavy: QVQLQQSAAELARPGASVKMSCKTSGYTFTSYTIHWIKQRPGQGLEWIGNINPTSGYTENNQRFKDKTTLTVDRSSNTAYLQLHSLTSEDSAVYFCARWGFKYDGEWSFDVWGAGTTVTVSSASTTAPSVFPLAPSCGTTSGATVALACLVLGYFPEPVTVSWNSGALTSGVHTFPAVLQASGLYSLSSMVTVPSSRWLSDTFTCNVAHPPSNTKVDKTVRKTDHPPGPKPCDCPKCPPPEAAGAPSIFIFPPKPKDTLSISRTPEVTCLVVDLGPDDSDVQITWFVDNTQVYTAKTSPREEQFNSTYRVVSVLPILHQDWLKGKEFKCKVNSKSLPSPIERTISKAKGQPHEPQVYVLPPAQEELSRNKVSVTCLIKSFHPPDIAVEWEITGQPEPENNYRTTPPQLDSDGTYFVYSKLSVDRSHWQRGNTYTCSVSHEALHSHHTQKSLTQSPGK
light: DIQMNQSPSSLSASLGDTITVTCRASQGISIWLSWYQQKPGNIPKVLINKASNLHIGVPPRFSGSGSGTHFTLTITSLQPEDIATYYCLQSQTYPLTFGGGTKLEINRSDAQPSVFLFQPSLDELHTGSASIVCILNDFYPKEVNVKWKVDGVVQNKGIQESTTEQNSKDSTYSLSSTLTMSSTEYQSHEKFSCEVTHKSLASTLVKSFQRSECQRE
With B2, in assay [1], the IC50, inhibition of feline IL-31-induced STAT3 phosphorylation, canine DH82 cells was 5.59 µg/mL and the IC50, inhibition of feline IL-31-induced STAT3 phosphorylation, feline FCWF4 cells amounted to 3.25 µg/mL. In assay [4], this molecule came in with a Kd of 0.0129 nM, a koff of 1.62e-07 s⁻¹ and a kon of 12600 M⁻¹ s⁻¹. Besides, in assay [7], the IC50 against feline IL-31 induced pSTAT3 signaling in feline FCWF4 cells, against mouse: feline 11E12 chimera was 2 fold. In assay [8], this molecule had an IC50 against canine IL-31 (pSTAT3; cell type not clear) of 28.6 µg/ml.

B3: ZIL171 (antibody, V domains shown)
VH: EVQLVESGGDLVKPAGSLRLSCVASGFTFRTYVMNWVRQAPGKGLQWVASINGGGSSPTYADAVRGRFTVSRDNAQNSLFLQMNSLRAEDTAIYFCVVSMVGPFDYWGHGTLVTVSS
VL: SSVLTQPPSVSVSLGQTATISCSGKSLSYYYAQWFQQKAGQAPVLVIYKDTERPSGIPDRFSGSSSGNTHTLTISGARAEDEADYYCESAVSSDTIVFGGGTHLTVLR
As to B3, the figures for the Binding (ELISA OD) in assay [5] and in assay [6] were 1.42 OD and 0.93 OD, respectively.

B4: Feline 11E12 1.1 (antibody, V domains shown)
VH: QVLLVQSGAEVKKPGASVKIFCKASGYSFTYYDINWLRQAPEQGLEWMGWIFPGDGGTKYNETFKGRLTLTADTSTNTVYMELSSLRSADTAMYYCARGGTSVIRDAMDYWGQGALVTVSS
VL: EIQMTQSPSSLSASPGDRVTITCRASESVDNYGISFMHWYQQKPGKVPKLLIYRASNLESGVPSRFSGSGSGTDFTLTISSLEPEDAATYYCQQSNKDPLTFGQGT
As for B4, in assay [3], the Kd was 22.2 nM, the koff was 0.000444 s⁻¹ and the kon came out at 20000 M⁻¹ s⁻¹. In assay [4], the Kd came to 0.764 nM, the koff was 0.000141 s⁻¹ and the kon came to 185000 M⁻¹ s⁻¹. For the same molecule, in assay [7], the potency against feline IL-31 in the feline FCWF assay, against the mouse version was found to be 2 fold.

B5: ZIL154 (antibody, V domains shown)
VH: EVHLVESGGDLVKPWGSLRLSCVASGFTFSDRGMSWVRQSPGKGLQWVAYIRYDGSRTDYADAVEGRFTISRDNAKNTLYLQMNSLRAEDTAVYYCARWDGSSFDYWGQGTLVTVSS
VL: DIVVTQTPLSLSVSPGETASFSCKASQSLLHSDGNTYLDWFRQKPGQSPQRLIYKVSNRDPGVPDRFSGSGSGTDFTLRISGVEADDAGLYYCMQAIHFPLTFGAGTKVELKR
For the molecule B5, the Binding (ELISA OD) in assay [5] came to 1.62 OD; in assay [6], 1.38 OD.

B6: mouse anti IL-31 antibody 11E12 (antibody, V domains shown)
VH: QVQLQQSGAELVKPGASVKLSCKASGYTFKYYDINWVRQRPEQGLEWIGWIFPGDGGTKYNETFKGKATLTTDKSSSTAYMQLSRLTSEDSAVYFCARGGTSVIRDAMDYWGQGTSVTVSS
VL: DIVLTQSPASLAVSLGQRATISCRASESVDNYGISFMHWYQQKPGQPPKLLIYRASNLESGIPARFSGSGSRTDFTLTINPVETDDVATYYCQQSNKDPLTFGAGTKLELK
B6: in assay [1], the IC50, inhibition of feline IL-31-induced STAT3 phosphorylation, canine DH82 cells turned out to be 2.47 µg/mL and the IC50, inhibition of feline IL-31-induced STAT3 phosphorylation, feline FCWF4 cells was 2.01 µg/mL. Also, in assay [3], the Kd is 0.738 nM, the dissociation rate constant (koff) amounted to 0.000123 s⁻¹ and the kon was 167000 M⁻¹ s⁻¹. Also, in assay [4], the Kd stood at 0.000763 nM, the koff stood at 4.8e-07 s⁻¹ and the kon was determined as 629000 M⁻¹ s⁻¹. For the same molecule, the Binding (ELISA OD) in assay [5] amounted to 1.15 OD. The same molecule returned a Binding (ELISA OD) in assay [6] of 1.33 OD.

B7: 15H05 mouse: canine chimera (antibody)
heavy: QVQLQQSAAELARPGASVKMSCKTSGYTFTSYTIHWIKQRPGQGLEWIGNINPTSGYTENNQRFKDKTTLTVDRSSNTAYLQLHSLTSEDSAVYFCARWGFKYDGEWSFDVWGAGTTVTVSSASTTAPSVFPLAPSCGSTSGSTVALACLVSGYFPEPVTVSWNSGSLTSGVHTFPSVLQSSGLYSLSSMVTVPSSRWPSETFTCNVAHPASKTKVDKPVPKRENGRVPRPPDCPKCPAPEMLGGPSVFIFPPKPKDTLLIARTPEVTCVVVDLDPEDPEVQISWFVDGKQMQTAKTQPREEQFNGTYRVVSVLPIGHQDWLKGKQFTCKVNNKALPSPIERTISKARGQAHQPSVYVLPPSREELSKNTVSLTCLIKDFFPPDIDVEWQSNGQQEPESKYRTTPPQLDEDGSYFLYSKLSVDKSRWQRGDTFICAVMHEALHNHYTQESLSHSPGK
light: DIQMNQSPSSLSASLGDTITVTCRASQGISIWLSWYQQKPGNIPKVLINKASNLHIGVPPRFSGSGSGTHFTLTITSLQPEDIATYYCLQSQTYPLTFGGGTKLEINRNDAQPAVYLFQPSPDQLHTGSASVVCLLNSFYPKDINVKWKVDGVIQDTGIQESVTEQDKDSTYSLSSTLTMSSTEYLSHELYSCEITHKSLPSTLIKSFQRSEC
B7: the IC50, inhibition of feline IL-31-induced STAT3 phosphorylation, feline FCWF4 cells in assay [1] turned out to be 3.11 µg/mL. Moreover, the IC50, inhibition of canine IL-31-induced STAT3 phosphorylation, canine DH82 cells in assay [2] came to 12.7 µg/mL. Also, in assay [7], the IC50, feline IL-31 signaling on the canine DH82 cell line (pSTAT3) stood at 0.71 µg/ml. The IC50 against canine IL-31 (pSTAT3; cell type not clear) in assay [8] came out at 12.5 µg/ml.

B8: ZIL159 (antibody, V domains shown)
VH: EVQLVESGGDLVKPAGSLRLSCVASGFTFSSYVMTWVRQAPGKGLQWVAGINSEGSRTAYADAVKGRFTISRDNAKNTLYLQIDSLRAEDTAIYYCATGDIVATGTSYWGQGTLVTVSS
VL: SNVLTQPPSVSVSLGQTATISCSGETLNRFYTQWFQQKAGQAPVLVIYKDTERPSGIPDRFSGSSSGNIHTLTISGARAEDEAAYYCKSAVSIDVGVFGGGTHLTVFR
Turning to B8, the Binding (ELISA OD) in assay [5] turned out to be 1.6 OD; in assay [6] it was 1.31 OD.
